The text below walks through data of patent US20260000780A1, “B-LYMPHOCYTE SPECIFIC AMATOXIN ANTIBODY CONJUGATES” (priority 2021, published 2026).

Data set [1] deals with MEC-2 tumor xenograft. The data set is described as follows: Disseminated MEC-2 tumor xenograft model. Type of data set: in vivo, CB17 Scid mice. Particulars: day 138 after treatment. On the procedure:
Cytotoxic efficacy studies in vivo were performed using various anti-CD37 antibody amatoxin conjugates in a disseminated MEC-2 tumor xenograft model over 140 days of treatment.
Tumor cell inoculation was done on day −3 by i.v. injection of 2.5×10^6 MEC-2 cells in CB17 Scid mice. Treatment was performed on day 0 by single dose i.v. injection at maximum tolerable dose (MTD) of ⅛ and MTD of 1/16 doses, respectively. Readout of the study was body weight and survival. Results are shown in FIG. 10 (body weight) and FIG. 11 (survival) at day 138 after treatment. All groups treated with conjugate gained body weight as normal, in contrast to the control group.
Treatment groups are defined in Table 4. Group 10 (chHH1-HDP-LALA-D265C, p.o., single dose; 10 mg/kg) was excluded from analysis. Group 11 (Ibrutinib) was treated with Ibrutinib p.o. 5x/w for 3 weeks at a dose 25 mg/kg.

Data set [2] addresses RNA-polymerase II (Homo sapiens, UniProt P24928+P30876). Conditions: read-out: KD of the complex between amanitin and RNA-polymerase II; cited from earlier work.
For data set [3], the system named is Richter syndrome cells (PDX RS1316). Nature of the data set: Richter's syndrome patient-derived xenograft (PDX) model, intravenous. Format: in vivo, CB17 Scid mice. Particulars: for efficacy in treating RS / tolerability of a single dose: single dose at different doses, 15 days post engraftment. From the text: The patient-derived xenograft (PDX) model for Richter's syndrome were adapted from Cancer Res (2018); 78 (13); 3413-20 with modifications.
Briefly, a total of 2×10^7 primary Richter syndrome cells from peripheral blood or lymph nodes were resuspended in Matrigel (BD Biosciences) and subcutaneously injected (double flank) in 8-week old CB17 Scid mice immunocompromised mice and left to engraft. Tumor masses were then collected, partially disrupted, and tumor cells reinjected as a single-cell suspension in Matrigel. These steps were repeated several times to obtain stable models of Richter syndrome.
For the intravenous model, 10^7 Richter syndrome cells purified from tumor masses were resuspended in PBS and injected in the tail vein of the mice. Mice were injected with a single dose of the conjugates XXIII, XXIV, or XXVI as indicated. All mice within the PBS control group died within 68 days post engraftment. One animal in the group receiving conjugate XXVI at a dose of 5 mg/kg i.v. died at day 90 post engraftment.
To assess residual RS disease activity in the organs of engrafted animals mice were euthanized and peripheral blood and organs (kidneys, spleen, bone marrow, lung, liver, and brain) collected and disease spread evaluated by flow cytometry, using anti-human antibodies (CD45PerCPCy5.5/CD19APC/CD20FITC).
Background: Xenograft models place foreign cells or tissue in a host animal.

For data set [4], the system named is Raji-Luc tumor xenograft. Nature of the data set: Disseminated Raji-Luc tumor xenograft model. Type of data set: in vivo, CB17 Scid mice. Conditions: single dose i.v., day 89 after treatment. On the procedure:
Cytotoxic efficacy studies in vivo were performed using various anti-CD37 antibody amatoxin conjugates in a disseminated Raji-Luc tumor xenograft model over 89 days of treatment.
Tumor cell inoculation was done on day-3 by i.v. injection of 2.5×10^6 Raji-Luc cells in CB17 Scid mice. Treatment was performed on day 0 by single dose i.v. injection at maximum tolerable dose (MTD) of 1/16 and MTD of 1/64 doses of cynomolgus MTD, respectively. Readout of the study was body weight, bioluminescence and survival. Results are shown in FIG. 10 (body weight), FIG. 11 (bioluminescence) and FIG. 12 (survival) at day 89 after treatment. All groups treated with conjugate gained body weight as normal, in contrast to the control group.

For the molecule `C=CC(=O)N1CCC[C@@H](n2nc(-c3ccc(Oc4ccccc4)cc3)c3c(N)ncnc32)C1` [Ibrutinib, reference compound], the Alive animals in data set [1] (25 mg/kg p.o. 5×/w for 3 weeks) is 0/10.
Consider amanitin, for which the Kd in data set [2] was 3 nM.

B1: conjugate XXVI (conjugate)
heavy: EIQLQQSGPELVKPGASVKVSCKASGYSFTDYNMYWVKQSHGKSLEWIGYIDPYNGDTTYNQKFKGKATLTVDKSSSTAFIHLNSLTSEDSAVYYCARSPYGHYAMDYWGQGTSVTVSSASTKGPSVFPLAPSSKSTSGGTAALGCLVKDYFPEPVTVSWNSGALTSGVHTFPAVLQSSGLYSLSSVVTVPSSSLGTQTYICNVNHKPSNTKVDKKVEPKSCDKTHTCPPCPAPEAAGGPSVFLFPPKPKDTLMISRTPEVTCVVVCVSHEDPEVKFNWYVDGVEVHNAKTKPREEQYNSTYRVVSVLTVLHQDWLNGKEYKCKVSNKALPAPIEKTISKAKGQPREPQVYTLPPSREEMTKNQVSLTCLVKGFYPSDIAVEWESNGQPENNYKTTPPVLDSDGSFFLYSKLTVDKSRWQQGNVFSCSVMHEALHNHYTQKSLSLSPGK
light: DIVMTQSHKLLSTSVGDRVSITCKASQDVSTAVDWYQQKPGQSPKLLINWASTRHTGVPDRFTGSGSGTDYTLTISSMQAEDLALYYCRQHYSTPFTFGSGTKLEIKRTVAAPSVFIFPPSDEQLKSGTASVVCLLNNFYPREAKVQWKVDNALQSGNSQESVTEQDSKDSTYSLSSTLTLSKADYEKHKVYACEVTHQGLSSPVTKSFNRGEC
In the case of B1, the “animals that died in the treated group” value in data set [3] (5 mg/kg i.v. single dose, n=4, death at day 90 post engraftment) is “One animal”. For the same molecule, in data set [3], the “efficacy in treating RS” value was “effective in treating RS” and the “tolerability of a single dose” value is on record as “well tolerated”.

B2: Conjugate XXV (conjugate)
heavy chain: B1 heavy
light chain: B1 light
Turning to B2, the Alive animals in data set [1] (0.94 mg/kg (MTD 1/16), i.v. single dose) is given as 8/10; in data set [1] (1.88 mg/kg (MTD 1/8), i.v. single dose), 9/10; in data set [4] (0.188 mg/kg (MTD 1/64)), 9/10; in data set [4] (0.75 mg/kg (MTD 1/16)), 10/10.

B3: Conjugate XXIV (conjugate)
heavy: B1 heavy
light: B1 light
In the case of B3, in data set [3], the “efficacy in treating RS” value was “effective in treating RS”. Further, in data set [3], the “tolerability of a single dose” value is “well tolerated”. Moreover, in data set [3] (single dose, 5 mg), the “residual RS disease activity in organs (flow cytometry CD45/CD19/CD20)” value is given as “significantly reduce”. Moreover, the Alive animals in data set [1] (1.25 mg/kg (MTD 1/16), i.v. single dose) is given as 4/10; in data set [1] (2.5 mg/kg (MTD 1/8), i.v. single dose), 6/10; in data set [4] (0.188 mg/kg (MTD 1/64)), 9/10; in data set [4] (0.75 mg/kg (MTD 1/16)), 10/10.

As a reminder, the Kd is the equilibrium constant for the complex coming apart.
